Ends that are not written are not given here.

In one test the target is hMC3R (human, UniProt P41968 1-323). Nature of the test: cell-based or functional assay.
In another test the target is hMC4R (human, UniProt P32245 1-332). In words: cell-based or functional assay.
Chain of hMC4R (P32245 whole entry): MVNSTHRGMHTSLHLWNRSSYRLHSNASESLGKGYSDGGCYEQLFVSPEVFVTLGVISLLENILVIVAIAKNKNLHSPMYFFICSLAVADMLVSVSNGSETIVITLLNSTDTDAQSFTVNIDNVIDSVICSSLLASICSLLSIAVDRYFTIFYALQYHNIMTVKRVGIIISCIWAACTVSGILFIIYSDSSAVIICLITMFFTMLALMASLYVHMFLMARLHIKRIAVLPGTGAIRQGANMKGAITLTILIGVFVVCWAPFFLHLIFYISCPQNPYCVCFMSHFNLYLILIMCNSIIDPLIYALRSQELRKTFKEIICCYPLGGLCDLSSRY

Chain of hMC3R (P41968 whole entry): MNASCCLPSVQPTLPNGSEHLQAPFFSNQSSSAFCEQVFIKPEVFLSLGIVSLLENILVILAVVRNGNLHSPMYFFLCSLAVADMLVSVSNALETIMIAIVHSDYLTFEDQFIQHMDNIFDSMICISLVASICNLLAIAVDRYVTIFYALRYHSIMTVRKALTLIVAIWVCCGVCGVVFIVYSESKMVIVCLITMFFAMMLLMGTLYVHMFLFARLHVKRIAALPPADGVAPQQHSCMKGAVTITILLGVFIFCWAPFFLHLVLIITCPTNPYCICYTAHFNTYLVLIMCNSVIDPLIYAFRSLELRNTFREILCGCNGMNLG

B1: AgRP(87-120) (peptide)
peptide: Ac-CVRLHESCLGQQVPCCDPAATCYCRFFNAFCYCR-NH2
modifications: disulfide (positions not given here); not fully specified; also: oxidatively folded, disulfide pairing not given here
For B1, the “EC50 (nM), NDP-MSH stimulated cAMP production in the presence of 0.10 µM AgRP protein” value (“EC50 (nM)” below) with hMC3R came out at 5.5 nM.

B2: AgRP(83-120) (peptide)
peptide: SSRRCVRLHESCLGQQVPCCDPAATCYCRFFNAFCYCR-NH2
modifications: disulfide (positions not given here); not fully specified; also: oxidatively folded, disulfide pairing not given here
For the molecule B2, the “EC50 (nM)” value in the test with hMC3R worked out at 2.96 nM; in the test with hMC4R, 4.92 nM.

As for SSRRCVRLHESCLGQQVPCCDPCATCYCRFFNAFCYCRQLGTAMNPCSQT-NH2 (disulfide (positions not given here)) [AgRP-2Q], the “EC50 (nM)” value is 9.22 nM with hMC3R and 6.66 nM with hMC4R.

Turning to SSQQCVRLHESCLGQQVPCCDPCATCYCRFFNAFCYCRQLGTAMNPCSQT-NH2 (disulfide (positions not given here)) [AgRP-4Q], the entries for the “EC50 (nM)” value with hMC3R and in the test with hMC4R were 1.62 nM and 1.8 nM, respectively.

KKRRCVRLHESCLGQQVPCCDPCATCYCRFFNAFCYCRKLKTKMNPCSRT-NH2 (disulfide (positions not given here)) [AgRP-4K]: the figures for the “EC50 (nM)” value with hMC3R and with hMC4R were 2.66 nM and 1.72 nM, respectively.

Take SSRRCVRLHESCLGQQVPCCDPCATCYCRFFNAFCYCRKLKTKMNPCSRT-NH2 (disulfide (positions not given here)) [AgRP-2K]: the figures for the “EC50 (nM)” value with hMC3R and with hMC4R were 16.1 nM and 4.54 nM, respectively.

The record behind these values is US20140148397A1 (University of California, published 2014).
